The values that follow come from patent US7253271 (REGENTS OF THE UNIVERSITY OF MICHIGAN, dated 2007).

Assay [1] addresses T1, human ClC-Kb chloride channel (human, UniProt P51801 1-687).
T1 construct: whole, on cells; Expressed from cRNA in Xenopus oocytes or from cDNA in tsA201 cells; also called CIC-Kb; CLCNKB
T1 sequence (looked up): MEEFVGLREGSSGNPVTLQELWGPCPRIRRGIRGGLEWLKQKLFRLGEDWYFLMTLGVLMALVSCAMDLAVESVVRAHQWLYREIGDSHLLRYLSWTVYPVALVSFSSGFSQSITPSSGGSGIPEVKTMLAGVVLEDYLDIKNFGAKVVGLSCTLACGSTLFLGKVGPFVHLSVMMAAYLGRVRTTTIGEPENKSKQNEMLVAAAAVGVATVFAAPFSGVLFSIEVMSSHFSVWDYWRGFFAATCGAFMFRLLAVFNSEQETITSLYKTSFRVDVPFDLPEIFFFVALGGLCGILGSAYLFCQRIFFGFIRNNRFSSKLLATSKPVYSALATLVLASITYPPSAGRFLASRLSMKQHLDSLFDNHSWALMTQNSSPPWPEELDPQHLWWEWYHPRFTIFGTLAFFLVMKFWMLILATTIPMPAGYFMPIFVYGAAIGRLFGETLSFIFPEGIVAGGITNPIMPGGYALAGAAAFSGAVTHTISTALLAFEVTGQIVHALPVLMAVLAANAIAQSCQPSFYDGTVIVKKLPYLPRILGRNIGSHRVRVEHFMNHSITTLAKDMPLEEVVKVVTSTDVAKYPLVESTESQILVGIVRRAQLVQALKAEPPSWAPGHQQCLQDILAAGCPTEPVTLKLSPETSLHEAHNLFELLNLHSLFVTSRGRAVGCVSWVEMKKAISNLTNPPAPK
Nature of the assay: inferred from co-expression (currents, colocalisation); no direct binding assay.

Assay [2] deals with T2, human ClC-Ka chloride channel (human, UniProt P51800 1-687).
T2 construct: whole, on cells; Expressed from cRNA in Xenopus oocytes or from cDNA in tsA201 cells; also called CIC-Ka; CLCNKA
T2 sequence (looked up): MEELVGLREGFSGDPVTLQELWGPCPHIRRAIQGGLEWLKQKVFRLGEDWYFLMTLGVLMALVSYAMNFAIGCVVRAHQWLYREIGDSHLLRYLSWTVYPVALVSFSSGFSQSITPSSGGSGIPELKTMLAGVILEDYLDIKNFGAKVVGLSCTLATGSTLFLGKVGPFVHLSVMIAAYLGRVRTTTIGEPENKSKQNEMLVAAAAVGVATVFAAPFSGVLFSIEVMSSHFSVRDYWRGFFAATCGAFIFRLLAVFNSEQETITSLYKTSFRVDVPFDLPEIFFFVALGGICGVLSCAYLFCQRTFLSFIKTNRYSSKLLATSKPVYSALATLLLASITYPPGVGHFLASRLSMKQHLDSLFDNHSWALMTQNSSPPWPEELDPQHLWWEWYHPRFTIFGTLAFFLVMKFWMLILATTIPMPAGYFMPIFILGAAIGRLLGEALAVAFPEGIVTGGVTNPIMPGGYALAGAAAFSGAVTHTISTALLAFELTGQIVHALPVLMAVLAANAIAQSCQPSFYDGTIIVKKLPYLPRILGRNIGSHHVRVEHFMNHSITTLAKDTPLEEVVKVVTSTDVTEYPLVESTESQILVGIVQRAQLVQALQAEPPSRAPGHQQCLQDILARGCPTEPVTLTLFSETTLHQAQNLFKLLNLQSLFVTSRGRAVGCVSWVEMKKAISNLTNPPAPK
Nature of the assay: inferred from co-expression (currents, surface expression, colocalisation); no direct binding assay.

B1: barttin (BSND protein), wild type, human (other)
chain: MADEKTFRIGFIVLGLFLLALGTFLMSHDRPQVYGTFYAMGSVMVIGGIIWSMCQCYPKITFVPADSDFQGILSPKAMGLLENGLAAEMKSPSPQPPYVRLWEEAAYDQSLPDFSHIQMKVMSYSEDHRSLLAPEMGQPKLGTSDGGEGGPGDVQAWMEAAVVIHKGSDESEGERRLTQSWPGPLACPQGPAPLASFQDDLDMDSSEGSSPNASPHDREEACSPQQEPQGCRCPLDRFQDFALIDAPTLEDEPQEGQQWEIALPNNWQRYPRTKVEEKEASDTGGEEPEKEEEDLYYGLPDGAGDLLPDKELGFEPDTQG
notes: Expressed in Xenopus oocytes, tsA201 cells or other transfected cells
On to B1, for which the binding result in assay [1] and in assay [2] was “binds” throughout.
